Changes are numbered by the printed parent chain. Names and notes keep the numbering of the source. “Also recorded” adds a separate entry of the source.
How the values were obtained:
[1] = Cryo-electron microscopy and tomography of proteins with DOPC liposomes; conditions: gold-nanoparticle conjugates; for membrane deformation and disruption by cryo-EM: pH 5
Method: The conjugation reactions were performed immediately prior to use for electron microscopy imaging. […] The grids were prepared using a Vitrobot Mark IV (FEI) at 4 C and 100% humidity before being plunge-frozen in ethane cooled with liquid nitrogen.
Electron micrographs were collected using a Tecnai G2 Spirit™ Transmission Electron Microscope (FEI) operated at 120 kV and equipped with a 4k×4k Gatan Ultrascan CCD camera at a nominal magnification of 26,000× or a Tecnai TF-20 Transmission Electron Microscope (FEI) operated at 200 kV equipped with a K2 Summit Direct Electron Detector (Gatan).
Projection micrographs collected on the TF-20 were captured with the detector operating in counting mode. Specimens were imaged at 14,500 magnification, giving a pixel size of 0.254 nm, with a dose of ˜18e−/Å^2 across 75 200 ms movie frames. Data were collected in a semi-automated fashion using Leginon™ (49) and micrograph movie frames were aligned using MotionCor2™ (50). Leginon™ was used to collect tomography tilt series from −48 to +48 degrees bidirectionally in 3 degree increments with a total accumulated dose of ˜100 e−/Å^2. Reconstructions were processed using etomo in the IMOD™ software suite (31) with CTF parameters estimated from CTFFIND4™ (52). Reconstructed tomograms were visualized and measurements were made using ImageJ™ (53).

U2-OS cells = experiment: Colocalization of +36GFP fusions with lysosomal membrane (confocal microscopy); type: cell-based; conditions: 5 μM, 1 hr
Method: U-2 OS (ATCC) cells were cultured in DMEM supplemented with 10% (v/v) inactivated FBS (Corning), 2 mM glutamine, penicillin (100 IU/mL), and streptomycin (100 μg/mL) at 37° C. and 5% CO2. The glass-bottom coverslip chambers were pre-coated with 500 μg/mL of Matrigel (Corning). Transfection of LAMP1-HaloTagTM was performed using Lonza Nucleofector system according to the manufacturer's specifications. After overnight of recovery and expression, the cells expressing LAMP1-HaloTagTM were labeled with 100 nM JF646-HTL for 30 minutes and washed three times with pre-warmed DMEM medium. The final concentration of 5 μM+36GFP fusion proteins was incubated with the LAMP1-HaloTagTM expressing U-2 OS cells on a pre-coated coverslip for 1 hr. Cells were fixed with 4% paraformaldehyde for 20 min at room temperature (RT) and quenched/rinsed with PBS supplemented with 30 mM glycine. Then, the coverslips were mounted on FluoroSaveTM (Millipore). For pH measurement of the lysosome, LysoSensorTM Yellow/Blue DND-160 was incubated at 1 mg/mL overnight and washed twice prior to imaging (54). The final concentration of 5 μM protein was incubated with the LAMP1-HaloTag expressing U2-OS cells that were loaded with 1 mg/mL LysoSensorTM Yellow/Blue DND-160 for 1 hr. In separate chambers, LysoSensorTM Yellow/Blue DND-160 loaded cells were incubated with bafilomycin A1 (1 μM) and chloroquine (50 μM) for 1 hr as a control. For fixed cell confocal microscopy, a customized Nikon TiE inverted scope outfitted with a Yokogawa spinning-disk scan head (#CSU-X1) along with an Andor iXonTM EM-CCD camera (DU-897) with […] exposure time was used to collect 3D images using an SR Apo TIRF 100×1.49 oil-immersion objective. […] coefficients were calculated in 3D with JF646 signal (LAMP-HaloTag) and +36GFP signal (corresponding proteins) using Imaris software with thresholding. Zeiss 880 equipped with AiryScanTM was also used to obtain high resolution images using a Plan-Apochromatic 63×/1.4 oil DIC objective.

[2] = Circular dichroism: GdmCl chemical denaturation and temperature melts; conditions: for folding stability by GdmCl denaturation: CD at 222 nm, PBS pH 7.4 or Na2PO4-Citrate at lower pH
Source text: For low-pH experiments involving circular dichroism (CD), small-angle X-ray scattering (SAXS), and size exclusion chromatography (SEC), Na2PO4-Citrate buffer was used to ensure that a single buffer system could be used that was stable over the entire pH range to be tested. Buffers were made using established ratios of stock solutions of 0.2 M Na2PO4 and 0.1 M Citrate; final pH was adjusted using hydrochloric acid (HCl) or sodium hydroxide (NaOH) if needed.
CD wavelength scans (260 to 195 nm) and temperature melts (25 to 95° C.) were measured using a JASCO™ J-1500 or an AVIV™ model 420 CD spectrometer. Temperature melts monitored absorption signal at 222 nm and were carried out at a heating rate of 4° C./min; protein samples were at 0.25 mg/mL in either phosphate buffered saline (PBS) pH 7.4 or Na2PO4-Citrate at indicated pH values (see Buffers systems for varying pH). Guanidinium chloride (GdmCl) titrations were all performed on an AVIV 420 spectrometer with an automated titration apparatus using either PBS pH 7.4 or Na2PO4-Citrate buffers at indicated pH at room temperature, monitoring helical signal at 222 nm, using a protein concentration of 0.025 mg/mL in a 1 cm cuvette with stir bar. Each titration consisted of at least 30 evenly distributed concentration points with one minute mixing time for each step. Titrant solution consisted of the same concentration of protein in the same buffer system plus GdmCl; GdmCl concentration of starting solutions was determined by reactive index.

[3] = Fluorescence dequenching liposome leakage (liposome disruption) assay; type: biochemical; conditions: for pH-dependent liposome disruption: SRB leakage
In short: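 Extruded ~120–130 nm liposomes (DOPC or 3:1 DOPC:POPS, ± 25% cholesterol) loaded with 25 mM sulforhodamine B in Tris buffer pH 8.0 were acidified to target pH for 20 min at 24 °C. Leakage was read as SRB dequenching (ex/em 565/586) and normalised to pre-acidification and 1% Triton X-100 signals.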

[4] = 2.5 μM protein with respect to monomer

B1: pRO-2: designed pH-responsive homotrimer, SEQ ID NO: 1-2 (protein)
chain 1: MGSHHHHHHGSGSENLYFQGSEYEIRKALEELKAATAELKRATASLRAITEELKKNPSEDALVEHNRAIVEHNAIIVEHNRIIAAVLELIVRAIK
chain 2: SEYEIRKALEELKAATAELKRATASLRAITEELKKNPSEDALVEHNRAIVEHNAIIVEHNRIIAAVLELIVRAIK
[1]
  membrane deformation and disruption by cryo-EM: widespread membrane deformation and disruption of the lipid bilayer
U2-OS cells
  colocalization with lysosomal membranes: colocalize with lysosomal membranes and are not degraded
[2]; 10 mM EDTA, PBS pH 7.4
  effect of EDTA on helical fold or thermostability: no effect on the helical fold or thermostability
[2]
  folding stability by GdmCl denaturation: decreased folding stability at low pH; also recorded: strongly pH dependent
[3]; [4]
  highest pH with liposome disruption: ≤ 6 pH
  pH of maximal liposome disruption activity: ~5 pH
  pH-dependent liposome disruption: disrupts liposomes in a pH-dependent manner
[3]; pH 5.0, DOPC, POPS, cholesterol mixtures
  disruption of liposomes with more native-like lipid compositions: caused pH-dependent disruption of liposomes with more native-like lipid compositions

B2: pRO-2 I56V: pRO-2 mutant, SEQ ID NO: 17-18 (protein)
chain 1: B1 chain 1 with I76V
chain 2: GSEYEIRKALEELKAATAELKRATASLRAITEELKKNPSEDALVEHNRAIVEHNAIVVEHNRIIAAVLELIVRAIK
[1]
  membrane deformation and disruption by cryo-EM: widespread membrane deformation and disruption of the lipid bilayer
[1]; pH 5 and pH 8
  interaction with liposomes by cryo-EM: directly interacts with liposomes at pH 5 but not at pH 8; also recorded: interacts directly with liposomes at pH 5 but not pH 8
U2-OS cells
  colocalization with lysosomal membranes: clearly localized within lysosomes
U2-OS cells; listed as I56V
  colocalization with lysosomal membranes: colocalize with lysosomal membranes and are not degraded; also recorded: most strongly colocalized with the lysosomal membrane
[2]
  folding stability by GdmCl denaturation: decreases stability
[3]; [4]
  pH-dependent liposome disruption: increased liposome permeabilization activity; also recorded: increased membrane permeabilization activity
